This note sets out measurements from US20240199757A1.

In test [1] the target is T1, murine NT5E expressed on 4T1 cells (murine) (UniProt Q61503).
T1 sequence (looked up): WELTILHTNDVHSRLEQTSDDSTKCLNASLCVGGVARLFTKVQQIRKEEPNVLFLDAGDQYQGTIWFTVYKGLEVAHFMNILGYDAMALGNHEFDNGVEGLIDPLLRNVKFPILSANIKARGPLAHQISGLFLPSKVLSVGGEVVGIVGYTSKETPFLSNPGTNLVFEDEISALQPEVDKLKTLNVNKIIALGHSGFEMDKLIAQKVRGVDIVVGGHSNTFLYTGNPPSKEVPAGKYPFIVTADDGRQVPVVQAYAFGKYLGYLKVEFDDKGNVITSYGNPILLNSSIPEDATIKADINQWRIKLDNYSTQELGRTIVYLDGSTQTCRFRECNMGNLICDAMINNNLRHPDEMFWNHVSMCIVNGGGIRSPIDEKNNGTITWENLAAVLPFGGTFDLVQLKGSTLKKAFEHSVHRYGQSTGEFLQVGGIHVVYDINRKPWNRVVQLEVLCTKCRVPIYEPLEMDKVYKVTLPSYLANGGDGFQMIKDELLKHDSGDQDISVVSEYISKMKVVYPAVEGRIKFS
The test is described as follows: cell-based or functional assay.

The target in test [2] is T2, human NT5E expressed on MDA-MB-231 cells (human) (UniProt P21589).
T2 sequence (looked up): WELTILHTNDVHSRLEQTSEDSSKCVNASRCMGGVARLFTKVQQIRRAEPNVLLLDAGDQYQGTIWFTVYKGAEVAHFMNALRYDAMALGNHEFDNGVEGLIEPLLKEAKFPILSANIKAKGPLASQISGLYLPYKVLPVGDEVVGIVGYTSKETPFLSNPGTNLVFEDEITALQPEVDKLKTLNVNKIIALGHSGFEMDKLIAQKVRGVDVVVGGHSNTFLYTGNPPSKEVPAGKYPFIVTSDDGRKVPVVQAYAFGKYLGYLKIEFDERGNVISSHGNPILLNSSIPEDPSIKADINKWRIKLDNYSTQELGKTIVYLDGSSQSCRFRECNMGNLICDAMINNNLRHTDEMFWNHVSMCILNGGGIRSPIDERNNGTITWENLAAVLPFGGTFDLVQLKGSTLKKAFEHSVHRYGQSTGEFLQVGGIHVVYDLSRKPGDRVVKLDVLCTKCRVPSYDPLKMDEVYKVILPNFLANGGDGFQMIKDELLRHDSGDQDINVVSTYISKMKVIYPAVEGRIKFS
The test is described as follows: cell-based or functional assay.

The target in test [3] is hNT5EFF (F417A/F500A mutant of hNT5E) (human). The test is described as follows: DSF thermal shift, 1.5-fold molar excess of Fab, 1 mM ATP (hNT5EFF alone 47° C.).
For test [4] the target is unchanged. The test is described as follows: DSF thermal shift, 1.5-fold molar excess of Fab, no ATP (hNT5EFF alone 47° C.).

B1: 1789 AM39 IgG (antibody, V domains shown)
VH: EVQLVESGGGLVQPGGSLRLSCAASGFNVSYSSIHWVRQAPGKGLEWVASIRGAGSDTRYADSVKGRFTISADTSKNTAYLQMNSLRAEDTAVYYCARNYWGWYPFYYFAFDYWGQGTLVTVSS
VL: DIQMTQSPSSLSASVGDRVTITCRASQSVSSAVAWYQQKPGKAPKLLIYSASSLYSGVPSRFSGSRSGTDFTLTISSLQPEDFATYYCQQGWDYPITFGQGTKVEIKR
For the molecule B1, the IC50 of NT5E activity on 4T1 cells, with ATP in test [1] turned out to be 12.7 nM. In addition, in test [2], the IC50 of NT5E activity on MDA-MB-231 cells, no ATP came to 6.9 nM and the IC50 of NT5E activity on MDA-MB-231 cells, with ATP was 2.5 nM.

B2: 1789 AM32 IgG (antibody, V domains shown)
VH: EVQLVESGGGLVQPGGSLRLSCAASGFNVSYSSIHWVRQAPGKGLEWVARIRGNEGDTYYADSVKGRFTISADTSKNTAYLQMNSLRAEDTAVYYCARNYWGWYPFYYFAFDYWGQGTLVTVSS
VL: DIQMTQSPSSLSASVGDRVTITCRASQSVSSAVAWYQQKPGKAPKLLIYSASSLYSGVPSRFSGSRSGTDFTLTISSLQPEDFATYYCQQGWDYPITFGQGTKVEIKR
B2: in test [1], the IC50 of NT5E activity on 4T1 cells, with ATP is 9.1 nM. In test [2], this molecule gave an IC50 of NT5E activity on MDA-MB-231 cells, no ATP of 5.6 nM and an IC50 of NT5E activity on MDA-MB-231 cells, with ATP of 2.3 nM.

B3: 1789 Fab (Fab, V domains shown)
VH: EVQLVESGGGLVQPGGSLRLSCAASGFNVSYSSIHWVRQAPGKGLEWVASISSSSGYTYYADSVKGRFTISADTSKNTAYLQMNSLRAEDTAVYYCARNYWGWYPFYYFAFDYWGQGTLVTV
VL: DIQMTQSPSSLSASVGDRVTITCRASQSVSSAVAWYQQKPGKAPKLLIYSASSLYSGVPSRFSGSRSGTDFTLTISSLQPEDFATYYCQQGWDYPITFGQGTKVEIKR
Turning to B3, the figures for the TM of NT5E in the presence of the Fab in test [3] and in test [4] were 46 ° C and 47 ° C, respectively.

B4: 1789 AM42 IgG (antibody, V domains shown)
VH: EVQLVESGGGLVQPGGSLRLSCAASGFNVSYSSIHWVRQAPGKGLEWVAKIRGGHQDTHYADSVKGRFTISADTSKNTAYLQMNSLRAEDTAVYYCARNYWGWYPFYYFAFDYWGQGTLVTVSS
VL: DIQMTQSPSSLSASVGDRVTITCRASQSVSSAVAWYQQKPGKAPKLLIYSASSLYSGVPSRFSGSRSGTDFTLTISSLQPEDFATYYCQQGWDYPITFGQGTKVEIKR
B4 displayed an IC50 of NT5E activity on 4T1 cells, with ATP in test [1] of 8.8 nM. In test [2], this molecule came in with an IC50 of NT5E activity on MDA-MB-231 cells, no ATP of 5.4 nM and an IC50 of NT5E activity on MDA-MB-231 cells, with ATP of 1.9 nM.
